{
  "source": "paper PMC10329638",
  "target": "rat ASIC3 wild type (rat) (UniProt O35240)",
  "sequence (O35240 whole entry)": "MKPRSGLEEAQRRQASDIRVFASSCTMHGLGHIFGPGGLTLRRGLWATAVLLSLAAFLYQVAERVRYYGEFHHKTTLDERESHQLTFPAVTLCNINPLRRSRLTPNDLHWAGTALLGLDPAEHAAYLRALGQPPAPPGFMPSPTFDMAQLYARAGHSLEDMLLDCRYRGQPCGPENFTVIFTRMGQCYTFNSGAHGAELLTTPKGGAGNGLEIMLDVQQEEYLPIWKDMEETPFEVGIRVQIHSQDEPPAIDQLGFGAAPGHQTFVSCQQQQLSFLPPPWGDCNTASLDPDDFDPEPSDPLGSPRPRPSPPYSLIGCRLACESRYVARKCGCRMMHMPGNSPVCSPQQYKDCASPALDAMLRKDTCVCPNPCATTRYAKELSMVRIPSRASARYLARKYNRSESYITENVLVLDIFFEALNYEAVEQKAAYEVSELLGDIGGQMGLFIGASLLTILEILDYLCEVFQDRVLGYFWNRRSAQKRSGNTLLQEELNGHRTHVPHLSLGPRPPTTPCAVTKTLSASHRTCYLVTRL",
  "data": [
    {"substance": "rat ASIC2a-H72N (from UniProt Q62962-1 1-512) (natural protein)", "values": [
      {"measurement": "proton-gated currents of Xenopus oocytes co-expressing wild-type ASIC3 and mutant ASIC2a (two-electrode voltage clamp, pH 7.0 to 3)", "result": "> 1", "unit": "µA"}
    ]}
  ]
}
